Data taken from doi:10.1101/2025.05.20.655083, “Importin α/β1 dependent nuclear import of Black Sea Bass Polyomavirus Large Tumor Antigen is mediated by a classical NLS located downstream of the SF3 helicase domain” (bioRxiv, 2025).
Where no end group is shown, it is not given here. The star is where a group is joined. FITC = O=C1OC2(c3ccc(O)cc3Oc3cc(O)ccc32)c2ccc(NC(=S)*)cc21; Ahx = NCCCCCC(=O)O

Columns and labels:
Assay in all cases: native gel or EMSA; 1.5% agarose gel in TB buffer (0.45 mM tris, 0.45 mM boric acid, pH ~8.5), 2 hours at 75 V; recombinant IMPs 20 μM, FITC peptides 10 μM; peptides seen with a UV filter, proteins by Coomassie staining
Conditions in all cases: both partners purified
[1] = target: T1, human importin β3 (human, UniProt O00410 1-1097)
T1 construct: human importin β3; In pET30a with His tag and TEV site; no cleavage step is described in the purification; also called hIMPβ3; IMPβ3; source: E. coli BL21(DE3)pLysS, purified (HisTrap, Superdex 200 SEC)
T1 sequence (looked up): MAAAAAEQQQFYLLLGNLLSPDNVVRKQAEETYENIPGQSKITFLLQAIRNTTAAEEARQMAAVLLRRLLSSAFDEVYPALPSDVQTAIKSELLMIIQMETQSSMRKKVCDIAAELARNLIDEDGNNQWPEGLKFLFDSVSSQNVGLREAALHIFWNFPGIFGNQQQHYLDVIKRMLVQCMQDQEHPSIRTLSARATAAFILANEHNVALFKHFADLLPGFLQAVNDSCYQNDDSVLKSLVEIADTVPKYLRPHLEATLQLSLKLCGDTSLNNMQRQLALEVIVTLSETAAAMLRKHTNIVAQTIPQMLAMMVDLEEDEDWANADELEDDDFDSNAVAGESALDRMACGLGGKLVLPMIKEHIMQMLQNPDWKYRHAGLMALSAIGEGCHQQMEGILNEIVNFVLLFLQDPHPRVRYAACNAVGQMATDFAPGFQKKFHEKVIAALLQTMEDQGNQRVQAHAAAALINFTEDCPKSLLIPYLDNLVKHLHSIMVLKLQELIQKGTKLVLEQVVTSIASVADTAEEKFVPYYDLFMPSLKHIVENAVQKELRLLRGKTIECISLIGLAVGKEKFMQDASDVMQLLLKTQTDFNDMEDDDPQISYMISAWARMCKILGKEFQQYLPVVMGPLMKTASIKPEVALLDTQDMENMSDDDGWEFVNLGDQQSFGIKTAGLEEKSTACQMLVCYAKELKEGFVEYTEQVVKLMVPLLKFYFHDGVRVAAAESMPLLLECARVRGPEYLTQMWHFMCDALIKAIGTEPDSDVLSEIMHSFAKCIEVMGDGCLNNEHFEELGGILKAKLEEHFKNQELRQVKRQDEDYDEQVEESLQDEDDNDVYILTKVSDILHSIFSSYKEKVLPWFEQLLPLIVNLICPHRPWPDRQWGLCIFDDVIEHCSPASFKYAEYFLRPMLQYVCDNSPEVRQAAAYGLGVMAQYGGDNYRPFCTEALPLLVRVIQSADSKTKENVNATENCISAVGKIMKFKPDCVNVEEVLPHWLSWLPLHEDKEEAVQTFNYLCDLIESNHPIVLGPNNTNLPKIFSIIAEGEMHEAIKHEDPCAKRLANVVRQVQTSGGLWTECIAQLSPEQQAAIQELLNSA

[2] = target: T2, human importin β2 (human, UniProt Q92973 1-898)
T2 construct: human importin β2; In pET30a with His tag and TEV site; no cleavage step is described in the purification; also called hIMPβ2; IMPβ2; source: E. coli BL21(DE3)pLysS, purified (HisTrap, Superdex 200 SEC)
T2 sequence (looked up): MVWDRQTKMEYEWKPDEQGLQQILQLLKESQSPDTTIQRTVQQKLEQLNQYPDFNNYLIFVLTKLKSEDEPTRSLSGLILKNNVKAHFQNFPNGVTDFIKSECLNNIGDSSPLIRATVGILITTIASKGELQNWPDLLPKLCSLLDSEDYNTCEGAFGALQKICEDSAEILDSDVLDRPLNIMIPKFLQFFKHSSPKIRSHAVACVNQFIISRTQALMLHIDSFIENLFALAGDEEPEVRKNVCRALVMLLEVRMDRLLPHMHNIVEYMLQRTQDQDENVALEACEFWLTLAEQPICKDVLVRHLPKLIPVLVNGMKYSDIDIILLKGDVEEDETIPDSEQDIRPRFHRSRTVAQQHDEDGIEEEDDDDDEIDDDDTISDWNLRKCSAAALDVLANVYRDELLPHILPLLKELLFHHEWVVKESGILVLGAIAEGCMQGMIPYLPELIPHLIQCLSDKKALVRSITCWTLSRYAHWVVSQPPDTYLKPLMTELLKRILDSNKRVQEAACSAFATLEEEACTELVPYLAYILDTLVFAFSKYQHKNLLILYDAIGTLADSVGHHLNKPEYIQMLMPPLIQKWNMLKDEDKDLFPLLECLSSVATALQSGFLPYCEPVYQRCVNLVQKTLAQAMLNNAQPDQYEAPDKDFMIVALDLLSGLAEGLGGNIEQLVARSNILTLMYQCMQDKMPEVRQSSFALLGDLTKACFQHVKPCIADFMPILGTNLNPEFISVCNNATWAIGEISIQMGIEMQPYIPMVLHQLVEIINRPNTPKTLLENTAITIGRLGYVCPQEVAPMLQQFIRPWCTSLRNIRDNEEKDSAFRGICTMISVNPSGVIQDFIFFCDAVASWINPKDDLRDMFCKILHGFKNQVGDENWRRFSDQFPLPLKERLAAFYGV

[3] = target: T3, human importin β1 (human, UniProt Q14974 1-876)
T3 construct: human importin β1; In pMCSG21 with His tag and TEV site; no cleavage step is described in the purification; also called hIMPβ1; IMPβ1; source: E. coli BL21(DE3)pLysS, purified (HisTrap, Superdex 200 SEC)
T3 sequence (Q14974 whole entry): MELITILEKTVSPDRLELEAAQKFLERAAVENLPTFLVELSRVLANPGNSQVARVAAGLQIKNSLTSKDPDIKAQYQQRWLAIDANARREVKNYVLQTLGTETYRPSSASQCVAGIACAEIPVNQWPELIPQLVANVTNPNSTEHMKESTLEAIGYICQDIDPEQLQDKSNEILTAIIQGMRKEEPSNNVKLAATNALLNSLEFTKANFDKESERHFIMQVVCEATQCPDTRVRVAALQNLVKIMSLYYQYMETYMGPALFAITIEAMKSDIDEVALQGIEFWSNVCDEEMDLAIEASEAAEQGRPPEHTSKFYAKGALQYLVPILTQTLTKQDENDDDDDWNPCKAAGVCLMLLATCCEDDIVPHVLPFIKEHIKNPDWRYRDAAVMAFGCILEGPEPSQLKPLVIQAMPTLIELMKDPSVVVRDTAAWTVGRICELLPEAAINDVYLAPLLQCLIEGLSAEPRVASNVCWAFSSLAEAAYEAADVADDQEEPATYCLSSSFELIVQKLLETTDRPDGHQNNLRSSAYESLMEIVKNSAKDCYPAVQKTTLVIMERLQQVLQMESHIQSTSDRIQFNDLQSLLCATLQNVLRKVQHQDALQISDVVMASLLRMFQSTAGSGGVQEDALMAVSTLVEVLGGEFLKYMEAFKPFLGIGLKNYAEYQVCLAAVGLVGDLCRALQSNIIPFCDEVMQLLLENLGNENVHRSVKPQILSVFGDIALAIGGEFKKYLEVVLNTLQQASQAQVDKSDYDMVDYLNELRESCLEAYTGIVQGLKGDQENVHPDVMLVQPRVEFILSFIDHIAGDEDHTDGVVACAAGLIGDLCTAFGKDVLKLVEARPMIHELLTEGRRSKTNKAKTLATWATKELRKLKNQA

Measured: binding result

B1: BSB PyV-LTA;NLS peptide (Black Sea Bass polyomavirus large tumor antigen residues 660-683) (peptide)
peptide: {FITC-Ahx}-IAEYKRRHNIGSDGLPNKRRRCLF
notes: also called BSB PyV-LTA 660-683; BSBPyV LTA FITC-NLS peptide
binds: all assays above
